Results: the Human Domainome abundance scans (Beltran et al. 2025)
± gives the uncertainty stated by the source.

B1: GA-binding protein alpha chain, residues 172 to 250; numbered along this chain, Q06546 (parent)
chain: GYRKEQERLGIPYDPIQWSTDQVLHWVVWVMKEFSMTDIDLTTLNISGRELCSLNQEDFFQRVPRGEILWSHLELLRKY

Variants of: B1
Assay: abundance fitness (aPCA) (normalised: wild type 0, dead -1); higher = more abundant; growth selection in yeast, the domain comes from the species named
Conditions: Homo sapiens

Variant	abundance fitness
S35V	-0.165 ± 0.054
S35P	-0.091 ± 0.036
S35T	-0.013 ± 0.052
S35A	-0.086 ± 0.046
S35K	-0.028 ± 0.062
S35I	-0.781 ± 0.21
S35N	-0.009 ± 0.051
S35C	-0.044 ± 0.055
S35M	-0.14 ± 0.064
S35G	0.018 ± 0.034
S35Y	-0.205 ± 0.086
S35W	-0.335 ± 0.044
S35F	-0.42 ± 0.086
S35R	-0.045 ± 0.028
S35Q	0.014 ± 0.051
S35L	-0.204 ± 0.031
S35E	-0.035 ± 0.052
S35H	0.008 ± 0.063
W29C	-0.663 ± 0.099
W29K	-0.816 ± 0.22
W29L	-0.815 ± 0.065
W29T	-0.452 ± 0.062
W29G	-0.776 ± 0.048
W29S	-0.439 ± 0.042

Variant	abundance fitness
W29A	-0.632 ± 0.054
W29R	-0.9 ± 0.072
W29Y	-0.106 ± 0.065
W29V	-0.939 ± 0.08
W29E	-0.701 ± 0.087
W29Q	-0.724 ± 0.087
W29F	-0.279 ± 0.08
W29D	-0.57 ± 0.12
W29H	-0.404 ± 0.058
W29I	-1.09 ± 0.28
E33M	-0.337 ± 0.069
E33S	-0.1 ± 0.037
E33K	-0.008 ± 0.065
E33I	-0.767 ± 0.29
E33T	-0.084 ± 0.056
E33N	-0.202 ± 0.25
E33V	-0.277 ± 0.036
E33Y	-0.257 ± 0.078
E33P	-0.26 ± 0.051
E33G	-0.196 ± 0.032
E33H	-0.092 ± 0.074
E33C	-0.276 ± 0.063
E33D	0.021 ± 0.077
E33A	-0.139 ± 0.05

Variant	abundance fitness
E33R	-0.031 ± 0.036
E33W	-0.566 ± 0.089
E33F	-0.375 ± 0.071
E33Q	-0.123 ± 0.066
V30Q	-0.345 ± 0.054
V30G	-0.051 ± 0.038
V30I	-0.099 ± 0.086
V30Y	-0.492 ± 0.096
V30C	0.012 ± 0.14
V30L	-0.12 ± 0.034
V30H	-0.134 ± 0.068
V30M	-0.042 ± 0.058
V30S	-0.076 ± 0.041
V30P	-0.822 ± 0.12
V30E	-0.08 ± 0.062
V30D	-0.763 ± 0.13
V30W	-0.339 ± 0.052
V30T	0.003 ± 0.071
V27E	-0.913 ± 0.19
V27R	-0.436 ± 0.03
V27Y	-0.197 ± 0.091
V27I	-0.059 ± 0.067
V27Q	-0.271 ± 0.051
V27M	-0.106 ± 0.056

Variant	abundance fitness
V27T	-0.245 ± 0.042
V27L	-0.194 ± 0.032
V27P	-0.668 ± 0.062
V27F	-0.256 ± 0.071
V27G	-0.037 ± 0.028
V27S	-0.171 ± 0.031
V27H	-0.758 ± 0.1
V27K	-0.478 ± 0.073
V27D	-0.75 ± 0.12
V27C	-0.073 ± 0.062
V27W	-0.732 ± 0.054
V27N	-0.818 ± 0.42
W26Y	-0.514 ± 0.12
W26P	-0.947 ± 0.091
W26T	-1.03 ± 0.11
W26R	-0.855 ± 0.057
W26N	-0.894 ± 0.21
W26S	-1.13 ± 0.14
W26Q	-0.875 ± 0.13
K32E	-0.024 ± 0.053
K32V	-0.36 ± 0.044
K32R	-0.024 ± 0.041
K32I	-0.582 ± 0.13
K32T	-0.01 ± 0.059

Variant	abundance fitness
K32F	-0.41 ± 0.085
K32C	-0.188 ± 0.077
K32L	-0.443 ± 0.052
K32S	-0.079 ± 0.046
K32N	-0.024 ± 0.14
K32M	-0.261 ± 0.059
K32Y	-0.172 ± 0.082
K32A	-0.141 ± 0.044
K32Q	-0.061 ± 0.067
K32P	-0.734 ± 0.09
K32W	-0.419 ± 0.039
V28M	0.016 ± 0.053
V28I	-0.017 ± 0.06
V28P	-0.921 ± 0.086
V28F	-0.129 ± 0.064
V28A	-0.004 ± 0.047
V28W	-0.043 ± 0.024
V28N	-0.1 ± 0.098
V28G	-0.023 ± 0.034
V28H	-0.013 ± 0.093
V28E	-0.039 ± 0.065
V28K	0.085 ± 0.069
V28D	0.017 ± 0.13
V28C	0.039 ± 0.042

Variant	abundance fitness
V28R	0.043 ± 0.027
V28S	-0.035 ± 0.032
V28Q	0.027 ± 0.046
M31D	-0.794 ± 0.33
M31Y	-0.322 ± 0.088
M31C	0.069 ± 0.078
M31T	0.018 ± 0.059
M31G	-0.089 ± 0.037
M31I	-0.031 ± 0.076
M31E	-0.289 ± 0.084
M31K	-0.089 ± 0.079
M31L	-0.11 ± 0.037
M31A	-0.046 ± 0.051
M31R	-0.155 ± 0.036
M31F	-0.09 ± 0.087
M31Q	0.059 ± 0.049
M31P	-1.01 ± 0.16
M31H	-0.169 ± 0.23
M31V	-0.036 ± 0.033
M31N	-0.191 ± 0.099
F34R	-0.035 ± 0.032
F34L	-0.145 ± 0.039
F34W	-0.092 ± 0.047
F34Q	-0.012 ± 0.08

Variant	abundance fitness
F34E	-0.056 ± 0.057
F34S	-0.063 ± 0.044
F34Y	0.015 ± 0.098
F34G	-0.117 ± 0.033
F34A	-0.031 ± 0.037
F34C	-0.068 ± 0.068
F34N	0.081 ± 0.066
F34T	-0.061 ± 0.054
F34P	-0.605 ± 0.056
F34H	0.077 ± 0.073
F34K	0.015 ± 0.072
F34M	-0.175 ± 0.056
M36K	-0.062 ± 0.043
M36G	-0.182 ± 0.032
M36L	0.043 ± 0.038
M36A	-0.025 ± 0.039
M36D	-0.019 ± 0.05
M36F	-0.09 ± 0.058
M36N	-0.189 ± 0.12
M36H	-0.193 ± 0.075
M36I	-0.05 ± 0.068
M36C	0.081 ± 0.048
M36E	-0.031 ± 0.054
